Results on four molecules are retold here after patent publication US20150284436A1 (published 2015).

Data set [1] deals with T1, N-TXNIP (N-terminal domain of TXNIP, residues 3-156) (human, UniProt Q9H3M7 3-156).
T1 construct: The NMR sample was 15N-labeled and its hexahistidine-tag was removed by rTEV; In the Ni-NTA co-purification it carried the N-terminal hexahistidine-tag; also called N-terminal TXNIP; ^15N-labeled N-TXNIP
T1 chain: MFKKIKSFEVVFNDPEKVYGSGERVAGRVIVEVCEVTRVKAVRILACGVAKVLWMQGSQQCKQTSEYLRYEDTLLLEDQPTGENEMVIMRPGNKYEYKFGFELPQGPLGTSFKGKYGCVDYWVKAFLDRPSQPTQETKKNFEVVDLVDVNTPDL
In words: 1H-15N HSQC NMR. The method, then: NMR interaction experiments were carried out by recording ¹H-¹⁵N NMR HSQC spectra of ¹⁵N-labeled N-TXNIP upon addition of unlabeled TRX or its mutant, which was reduced with 5 mM DTT and dialyzed against 50 mM potassium phosphate (pH 6.6) prior to the interaction study to remove excess DTT.
The ¹H-¹⁵N HSQC spectra of all proteins were measured on a Bruker 900 MHz NMR spectrometer at the Korea Basic Science Institute (Ochang, Korea). The NMR measurements were performed using 0.3 mM ¹⁵N-labeled protein in 50 mM potassium phosphate (pH 6.6) containing 10% D₂O at 25° C. All NMR spectra were processed with Topspin 2.1 and analyzed with the program SPARKY 3.1.
Further, TRX muteins were added and ¹H-¹⁵N HSQC spectra of ¹⁵N-labeled N-TXNIP were monitored to examine interaction between N-TXNIP and TRX. […] In contrast, C62A, C69A, and C73A mutants caused a chemical shift similar to the wild-type TRX (FIG. 12).

For data set [2], the target named is T2, FLAG-tagged TXNIP with Cys63 substituted with serine (human, UniProt Q9H3M7 1-391).
T2 chain: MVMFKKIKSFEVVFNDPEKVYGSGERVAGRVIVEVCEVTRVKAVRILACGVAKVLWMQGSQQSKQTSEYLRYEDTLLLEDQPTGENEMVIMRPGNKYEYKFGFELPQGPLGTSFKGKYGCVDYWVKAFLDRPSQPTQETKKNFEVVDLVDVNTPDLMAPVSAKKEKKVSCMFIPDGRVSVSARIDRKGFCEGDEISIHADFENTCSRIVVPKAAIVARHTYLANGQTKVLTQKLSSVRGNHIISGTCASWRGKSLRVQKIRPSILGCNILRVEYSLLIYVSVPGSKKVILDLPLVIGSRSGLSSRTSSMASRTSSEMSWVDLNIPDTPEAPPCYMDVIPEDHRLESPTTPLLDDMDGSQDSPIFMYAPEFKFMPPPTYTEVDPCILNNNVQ
Nature of the data set: GST pull-down / co-IP from 293T lysates, Western blot. The protocol:
(§1) Coimmunoprecipitation assays were performed using lysates from 293T cells transfected with combinations of FLAG-tagged or HA-tagged TXNIP plasmids and GST-tagged or FLAG-tagged TXNIP plasmids. Immobilized proteins on FLAG-agarose beads or glutathione beads were visualized by Western blot analysis using anti-HA, anti-FLAG, or anti-GST antibodies. One percent of WCL was used as the input;
(§2) To test the in vivo interprotomer interaction between TXNIP molecules, HEK 293T cells were transfected with plasmids expressing HA-tagged-TXNIP and FLAG-tagged T-TXNIP. 24 hours later, the cells were harvested and lysed in the 50 mM iodoacetamide-containing buffer [0.5% Triton X-100, 150 mM NaCl, 10% glycerol, 1 mM NaF, 1 mM AEBSF, 2 μg/mL leupeptin, 5 μg/mL aprotinin and 20 mM HEPES (pH 7.2)]. After centrifugation at 16,000 rpm for 20 minutes, the supernatant was incubated with anti-FLAG M2 agarose (Sigma) at 4° C. for 12 hours. The immobilized proteins were collected by centrifugation and washed three times with the lysis buffer. The bound proteins were subjected to SDS-PAGE under reduced and non-reduced conditions. […] 24 hours later, the cells were harvested and lysed in the lysis buffer. […]
For orientation: Immunoblotting shows a protein as a band on a membrane.

For data set [3], the target named is T3, FLAG-tagged TXNIP with Cys247 substituted with serine (human, UniProt Q9H3M7 1-391).
T3 chain: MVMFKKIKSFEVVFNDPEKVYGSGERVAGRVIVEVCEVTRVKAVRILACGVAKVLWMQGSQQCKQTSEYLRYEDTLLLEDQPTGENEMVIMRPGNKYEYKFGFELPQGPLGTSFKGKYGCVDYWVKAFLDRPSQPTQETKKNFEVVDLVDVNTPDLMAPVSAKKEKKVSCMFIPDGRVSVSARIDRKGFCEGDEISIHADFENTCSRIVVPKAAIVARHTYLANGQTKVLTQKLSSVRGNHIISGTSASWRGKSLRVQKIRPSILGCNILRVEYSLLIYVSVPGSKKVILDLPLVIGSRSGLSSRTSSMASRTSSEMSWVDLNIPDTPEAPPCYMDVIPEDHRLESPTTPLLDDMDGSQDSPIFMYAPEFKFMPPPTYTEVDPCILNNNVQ
The data set is described as above. The method, then:
as §1, §2

Data set [4] deals with T4, TRX(C73A), tag-free, co-expressed in complex (human, UniProt P10599 1-105).
T4 construct: Used in complex with T-TXNIP(C36S/C49S/C120S/C170S/C205S/C267S) to avoid TRX dimerization
T4 chain: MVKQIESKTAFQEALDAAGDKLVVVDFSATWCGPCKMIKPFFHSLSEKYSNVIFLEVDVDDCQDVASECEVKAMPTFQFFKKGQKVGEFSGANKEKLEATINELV
Nature of the data set: purified co-expressed complex, gel filtration before and after ROS treatment. The method, then:
In detail, the TRX-T-TXNIP(C120S/C170S/C205S/C267S) complex was incubated with H₂O₂ at 37° C. for 30 minutes (a). The TRX(C73A)-T-TXNIP(C36S/C49S/C120S/C170S/C205S/C267S) complex was incubated with diamide at 37° C. for 30 minutes. The reaction products were injected onto a HiLoad™ 16/60 Superdex™ 75 gel filtration column at room temperature (b). The TRX Cys35 residue is essential for dissociation between TRX and TXNIP. The TRX(C35A)-T-TXNIP(C120S/C170S/C205S/C267S) complex was incubated with diamide at 37° C. for 60 minutes and the reaction products were injected onto the Superdex™ 75 10/300 GL gel filtration column (c). Eluted T-TXNIP and TRX after the ROS treatments are indicated for each reaction. All eluted proteins were analyzed by SDS-PAGE;
The TRX and T-TXNIP(C120S/C170S/C205S/C267S) complex was used to circumvent non-functional cysteine-induced aggregation. The complex (at a concentration of 0.05 mM) was incubated with H₂O₂ at concentrations in the range of 0 to 10 mM in 50 mM Tris-HCl (pH 8.0), 500 mM NaCl, and 10% glycerol at 37° C. The TRX([…]) and T-TXNIP(C36S/C49S/C120S/C170S/C205S/C267S) complex was also used to avoid TRX dimerization and non-functional cysteine-induced aggregation. This complex was incubated with 0 to 3 mM diamide in 50 mM Tris-HCl (pH 8.0), 500 mM NaCl, and 10% glycerol at 37° C. […]
(In general: In gel filtration, larger molecules generally elute earlier.)

Data set [5] deals with the molecule itself. Nature of the data set: non-reducing SDS-PAGE after air oxidation. The protocol: TRX(C73)-T-TXNIP(C36S/C49S/C120S/C170S/C205S/C267S) complex was incubated with 100 mM DTT and subjected to size exclusion chromatography to isolate T-TXNIP(C36S/C49S/C120S/C170S/C205S/C267S) from remained protein complex and TRX. The fractions containing T-TXNIP(C36S/C49S/C120S/C170S/C205S/C267S) were collected and dialyzed against 50 mM Tris-HCl (pH 8.0), 500 mM NaCl and 10% glycerol to induce the formation of disulfide bonds between TXNIP molecules;
For analysis by mass spectrometry in vitro, purified TRX(C73A)-T-TXNIP(C36S/C49S/C120S/C170S/C205S/C267S) complex was incubated with 100 mM DTT for 1 hour at room temperature and injected to the Superdex™ 200 10/300 GL gel filtration column installed on an AKTA purifier FPLC system to obtain T-TXNIP(C36S/C49S/C120S/C170S/C205S/C267S) from remained protein complex and TRX(C73 Å). The fractions containing T-TXNIP(C36S/C49S/C120S/C170S/C205S/C267S) were dialyzed against 50 mM Tris-HCl (pH 8.0), 500 mM NaCl and 10% glycerol to induce the formation of disulfide bonds between TXNIP molecules through air oxidation. Dialyzed proteins were then subjected to SDS-PAGE under non-reducing conditions.

B1: TRX C32A mutant (NMR sample) (enzyme)
chain: MVKQIESKTAFQEALDAAGDKLVVVDFSATWAGPCKMIKPFFHSLSEKYSNVIFLEVDVDDCQDVASECEVKCMPTFQFFKKGQKVGEFSGANKEKLEATINELV
notes: not shown: C-terminal hexahistidine-tag from pET21 vector
B1: the binding result in data set [1] was “no binding”.

B2: GST-fused TXNIP with Cys63 substituted with serine (other)
chain: MVMFKKIKSFEVVFNDPEKVYGSGERVAGRVIVEVCEVTRVKAVRILACGVAKVLWMQGSQQSKQTSEYLRYEDTLLLEDQPTGENEMVIMRPGNKYEYKFGFELPQGPLGTSFKGKYGCVDYWVKAFLDRPSQPTQETKKNFEVVDLVDVNTPDLMAPVSAKKEKKVSCMFIPDGRVSVSARIDRKGFCEGDEISIHADFENTCSRIVVPKAAIVARHTYLANGQTKVLTQKLSSVRGNHIISGTCASWRGKSLRVQKIRPSILGCNILRVEYSLLIYVSVPGSKKVILDLPLVIGSRSGLSSRTSSMASRTSSEMSWVDLNIPDTPEAPPCYMDVIPEDHRLESPTTPLLDDMDGSQDSPIFMYAPEFKFMPPPTYTEVDPCILNNNVQ
On to B2, for which, in data set [2], the binding result is “no binding”.

B3: GST-fused TXNIP with Cys247 substituted with serine (other)
chain: MVMFKKIKSFEVVFNDPEKVYGSGERVAGRVIVEVCEVTRVKAVRILACGVAKVLWMQGSQQCKQTSEYLRYEDTLLLEDQPTGENEMVIMRPGNKYEYKFGFELPQGPLGTSFKGKYGCVDYWVKAFLDRPSQPTQETKKNFEVVDLVDVNTPDLMAPVSAKKEKKVSCMFIPDGRVSVSARIDRKGFCEGDEISIHADFENTCSRIVVPKAAIVARHTYLANGQTKVLTQKLSSVRGNHIISGTSASWRGKSLRVQKIRPSILGCNILRVEYSLLIYVSVPGSKKVILDLPLVIGSRSGLSSRTSSMASRTSSEMSWVDLNIPDTPEAPPCYMDVIPEDHRLESPTTPLLDDMDGSQDSPIFMYAPEFKFMPPPTYTEVDPCILNNNVQ
As for B3, in data set [3], the binding result is “no binding”.

B4: T-TXNIP(C36S/C49S/C120S/C170S/C205S/C267S) (other)
chain: MFKKIKSFEVVFNDPEKVYGSGERVAGRVIVEVSEVTRVKAVRILASGVAKVLWMQGSQQCKQTSEYLRYEDTLLLEDQPTGENEMVIMRPGNKYEYKFGFELPQGPLGTSFKGKYGSVDYWVKAFLDRPSQPTQETKKNFEVVDLVDVNTPDLMAPVSAKKEKKVSSMFIPDGRVSVSARIDRKGFCEGDEISIHADFENTSSRIVVPKAAIVARHTYLANGQTKVLTQKLSSVRGNHIISGTCASWRGKSLRVQKIRPSILGSNILRVEYSLLIYVSVPGSKKVILDLPLVIGSRSGLSSRTSSMASRTSSEM
notes: 1 residues 3-317 (T-TXNIP) with the six printed substitutions; also called monomeric T-TXNIP mutant
Regarding B4, the binding result in data set [4] and in data set [5] was “binds” each time.
